Article PMC2645917 (2008)

Target: F29 7-36 (Homo sapiens, UniProt P01275, Ile29 replaced by hexafluoroleucine, C-terminal amide)
Assay: competition binding with [125I]-Ex

B1: GLP-1 receptor (protein)
chain: RPQGATVSLWETVQKWREYRRQCQRSLTEDPPPATDLFCNRTFDEYACWPDGEPGSFVNVSCPWYLPWASSVPQGHVYRFCTAEGLWLQKDNSSLPWRDLSECEESKRGERSSPEEQLLFLYIIYTVGYALSFSALVIASAILLGFRHLHCTRNYIHLNLFASFILRALSVFIKDAALKWMYSTAAQQHQWDGLLSYQDSLSCRLVFLLMQYCVAANYYWLLVEGVYLYTLLAFSVLSEQWIFRLYVSIGWGVPLLFVVPWGIVKYLYEDEGCWTRNSNMNYWLIIRLPILFAIGVNFLIFVRVICIVVSKLKANLMCKTDIKCRLAKSTLTLIPLLGTHEVIFAFVMDEHARGTLRFIKLFTELSFTSFQGLMVAILYCFVNNEVQLEFRKSWERWRLEHLHIQRDSSMKPLKCPTSSLSSGATAGSSMYTATCQASCS
IC50: 13.4 nM
